Results as given in patent US20190382484A1 (Chugai, published 2019).
Substitutions are numbered along the chain they refer to.

B1: MRAH-DA303v2/MRAL-k0 + MRAH-DB220v2/MRAL-k0 (antibody, human IgG1, kappa)
heavy 1: QVQLQESGPGLVRPSQTLSLTCTVSGYSITSDHAWSWVRQPPGRGLEWIGYISYSGITTYNPSLKSRVTMLRDTSKNQFSLRLSSVTAADTAVYYCARSLARTTAMDYWGQGSLVTVSSASTKGPSVFPLAPSSKSTSGGTAALGCLVKDYFPEPVTVSWNSGALTSGVHTFPAVLQSSGLYSLSSVVTVPSSSLGTQTYICNVNHKPSNTKVDKKVEPKSCDKTHTSPPSPAPEYQWGPMVFLFPPKPKDTLMISRTPEVTCVVVDVSDEEPEVKFNWYVDGVEVHNAKTKPREEQYNATYRVVSVLTVLHQDWLNGKEYKCKVSNKALPAPIEKTISKAKGQPREPQVYTLPPSRKELTKNQVSLTCLVKGFYPSDIAVEWESNGQPENNYKTTPPYLDSDGSFFLYSDLTVDKSRWQQGNVFSCSVMHEALHNHYTQKSLSLSP
heavy 2: QVQLQESGPGLVRPSQTLSLTCTVSGYSITSDHAWSWVRQPPGRGLEWIGYISYSGITTYNPSLKSRVTMLRDTSKNQFSLRLSSVTAADTAVYYCARSLARTTAMDYWGQGSLVTVSSASTKGPSVFPLAPSSKSTSGGTAALGCLVKDYFPEPVTVSWNSGALTSGVHTFPAVLQSSGLYSLSSVVTVPSSSLGTQTYICNVNHKPSNTKVDKKVEPKSCDKTHTSPPSPAPELLGGPSVFLFPPKPKDTLMISRTPEVTCVVVDVSHEEPEVKFNWYVDGVEVHNAKTKPREEQYNSTYRVVSVLTVLHQDWLNGKEYKCKVSNDALPMPIEETISKAKGQPREPQVYTLPPSRDELTKNQVSLTCLVKGFYPSDIAVEWESNGQPENNYKTTPPYLDSDGSFFLYSDLTVDKSRWQQGNVFSCSVMHEALHNHYTQESLSLSP
light: not shown
notes: Mixture of the two antibody-half molecules, which form a non-covalent heterodimer when captured on antigen; also called A1 + B1
B2: MRAH-DA303v2/MRAL-k0 (antibody, human IgG1, kappa)
heavy: B1 heavy 1
light: not shown
notes: Antibody-half molecule (one H chain, one L chain); L chain MRAL-k0; also called A1; antibody-half molecule A1
B3: MRAH-DA405v2/MRAL-k0 (antibody, human IgG1, kappa)
heavy: B1 heavy 1 with D411T
light: not shown
notes: Antibody-half molecule (one H chain, one L chain); also called A3; antibody-half molecule A3
B4: MRAH-DA402v2/MRAL-k0 + MRAH-DB402v2/MRAL-k0 (antibody, human IgG1, kappa)
heavy 1: B1 heavy 1 with D411H
heavy 2: B1 heavy 2 with D411H
light: not shown
notes: Mixture of the two antibody-half molecules, which form a non-covalent heterodimer when captured on antigen; also called A2 + B2
B5: MRAH-DB405v2/MRAL-k0 (antibody, human IgG1, kappa)
heavy: B1 heavy 2 with D411T
light: not shown
notes: Antibody-half molecule (one H chain, one L chain); also called B3; antibody-half molecule B3
B6: MRAH-DA402v2/MRAL-k0 (antibody, human IgG1, kappa)
heavy: B1 heavy 1 with D411H
light: not shown
notes: Antibody-half molecule (one H chain, one L chain); also called A2; antibody-half molecule A2
B7: MRAH-DB430v2/MRAL-k0 (antibody, human IgG1, kappa)
heavy: B1 heavy 2 with E359L
light: not shown
notes: Antibody-half molecule (one H chain, one L chain); also called B5; antibody-half molecule B5
B8: MRAH-DA405v2/MRAL-k0 + MRAH-DB405v2/MRAL-k0 (antibody, human IgG1, kappa)
heavy 1: B1 heavy 1 with D411T
heavy 2: B1 heavy 2 with D411T
light: not shown
notes: Mixture of the two antibody-half molecules, which form a non-covalent heterodimer when captured on antigen; also called A3 + B3
B9: MRAH-DA424v2/MRAL-k0 + MRAH-DB424v2/MRAL-k0 (antibody, human IgG1, kappa)
heavy 1: B1 heavy 1 with E359N
heavy 2: B1 heavy 2 with E359N
light: not shown
notes: Mixture of the two antibody-half molecules, which form a non-covalent heterodimer when captured on antigen; also called A4 + B4
B10: MRAH-DB424v2/MRAL-k0 (antibody, human IgG1, kappa)
heavy: B1 heavy 2 with E359N
light: not shown
notes: Antibody-half molecule (one H chain, one L chain); also called antibody-half molecule B4
B11: MRAH-DB402v2/MRAL-k0 (antibody, human IgG1, kappa)
heavy: B1 heavy 2 with D411H
light: not shown
notes: Antibody-half molecule (one H chain, one L chain); also called B2; antibody-half molecule B2
B12: MRAH-DA424v2/MRAL-k0 (antibody, human IgG1, kappa)
heavy: B1 heavy 1 with E359N
light: not shown
notes: Antibody-half molecule (one H chain, one L chain); also called antibody-half molecule A4
B13: MRAH-DB220v2/MRAL-k0 (antibody, human IgG1, kappa)
heavy: B1 heavy 2
light: not shown
notes: Antibody-half molecule (one H chain, one L chain); also called B1; antibody-half molecule B1
B14: MRAH-DA430v2/MRAL-k0 + MRAH-DB430v2/MRAL-k0 (antibody, human IgG1, kappa)
heavy 1: B1 heavy 1 with E359L
heavy 2: B1 heavy 2 with E359L
light: not shown
notes: Mixture of the two antibody-half molecules, which form a non-covalent heterodimer when captured on antigen; also called A5 + B5
B15: MRAH-DA430v2/MRAL-k0 (antibody, human IgG1, kappa)
heavy: B1 heavy 1 with E359L
light: not shown
notes: Antibody-half molecule (one H chain, one L chain); also called A5; antibody-half molecule A5
B16: antibody-half molecule B2 with IC17H / IC17L-k0 (IC17H-DB402v2/IC17L-k0) (antibody, human IgG1, kappa)
heavy: QVQLQQSGPQLVRPGASVKISCKASGYSFTSYWMHWVNQRPGQGLEWIGMIDPSYSETRLNQKFKDKATLTVDKSSSTAYMQLSSPTSEDSAVYYCALYGNYFDYWGQGTTLTVSSASTKGPSVFPLAPSSKSTSGGTAALGCLVKDYFPEPVTVSWNSGALTSGVHTFPAVLQSSGLYSLSSVVTVPSSSLGTQTYICNVNHKPSNTKVDKKVEPKSCDKTHTSPPSPAPELLGGPSVFLFPPKPKDTLMISRTPEVTCVVVDVSHEEPEVKFNWYVDGVEVHNAKTKPREEQYNSTYRVVSVLTVLHQDWLNGKEYKCKVSNDALPMPIEETISKAKGQPREPQVYTLPPSRDELTKNQVSLTCLVKGFYPSDIAVEWESNGQPENNYKTTPPYLDSDGSFFLYSHLTVDKSRWQQGNVFSCSVMHEALHNHYTQESLSLSP
light: DIQMTQSSSSFSVSLGDRVTITCKASEDIYNRLAWYQQKPGNAPRLLISGATSLETGVPSRFSGSGSGKDYTLSITSLQTEDVATYYCQQYWSTPYTFGGGTKLEVKRTVAAPSVFIFPPSDEQLKSGTASVVCLLNNFYPREAKVQWKVDNALQSGNSQESVTEQDSKDSTYSLSSTLTLSKADYEKHKVYACEVTHQGLSSPVTKSFNRGEC
B17: antibody-half molecule B3 with IC17H / IC17L-k0 (IC17H-DB405v2/IC17L-k0) (antibody, human IgG1, kappa)
heavy: B16 heavy with H408T
light: B16 light
B18: EGLVH-wtIgG4C4/EGLVL-k0 (antibody, V domains shown)
VH: QDQLVQSGAEVKKPGASVKVSCKASGFNIKDTYIQWVRQAPGQGLEWMGRIDPLRKQTKYREKFEGRVTITADTSTNTAYMELSSLRSEDTAVYYCVRSGREFDYWGQGTLVTVSS
VL: DIQMTQSPSSLSASVGDRVTITCRASQDIHKYIAWYQQKPGQAPRLLIQYTSTLQPGVPSRFSGSGSGTDYTFTISSLQPEDIATYYCLQYEQLRTFGGGTKVEIKR
notes: also called control of the half molecule state of antibody

Key:
[1] = target: T1, FcγRIIIa extracellular domain (UniProt P08637 17-208, limits assumed); assay: SPR (Biacore T200), mixed half molecules captured via biotinylated antigen peptide on CAP chip, FcγR as analyte, 25 C
T1 construct: extracellular domain; Purified over HisTrap, so a His tag is implied
T1 sequence (P08637 17-208 limits assumed): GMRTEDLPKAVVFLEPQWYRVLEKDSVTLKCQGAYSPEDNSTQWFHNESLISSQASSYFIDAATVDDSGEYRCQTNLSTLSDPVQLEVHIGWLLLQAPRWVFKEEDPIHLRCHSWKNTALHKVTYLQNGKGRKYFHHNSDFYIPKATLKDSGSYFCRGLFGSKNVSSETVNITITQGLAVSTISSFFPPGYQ
Procedure: Interaction analysis of antibody-half molecules of interest and FcγR was performed using Biacore (registered trademark) T200. Biotin CAPture Kit, Series S (GE Healthcare) was used for the measurement, and HBS-EP+10X (GE Healthcare) diluted 1/10th was used as a running buffer. The measurement temperature was 25° C. For the sensor chip, Series S Sensor Chip CAP (GE Healthcare) onto which previously-biotinylated antigen peptides were allowed to interact and thereby immobilized was used. These chips were allowed to capture the antibody-half molecules of interest and then interact with FcγR diluted with the running buffer. The antigens and antibody-half molecules captured on the chip were washed as described in the instructions attached to the kit, and the chips were regenerated and reused.

[2] = target: T1, FcγRIIIa extracellular domain; assay: SPR (Biacore T200), half molecule captured via biotinylated antigen peptide on CAP chip, FcγR as analyte
[3] = target: antibody-half molecule A2 with PF1H / PF1L-k0 (PF1H-DA402v2/PF1L-k0); assay: SPR (Biacore T200), about 50 RU of half molecule A captured via biotinylated antigen peptide, half molecule B as analyte at 2.5 mg/mL, 25 C
Procedure: (§1) The interaction between the obtained antibody-half molecules was analyzed using Biacore (registered trademark) T200. Biotin CAPture Kit, Series S (GE Healthcare) was used for the measurement, and HBS-EP+10X (GE Healthcare) diluted 1/10th was used as a running buffer. The measurement temperature was 25° C. For the sensor chip, Series S Sensor Chip CAP (GE Healthcare) onto which previously-biotinylated antigen peptides were allowed to interact and thereby immobilized was used. These chips were allowed to capture approximately 50 RU of the antibody-half molecule A of interest and then interact with the antibody-half molecule B of interest diluted with the running buffer at 2.5 mg/mL for 180 seconds at a flow rate of 30 μL/min, and measurement was carried out. The molar binding ratio was calculated based on the following Formula 2. The antibody-half molecule A captured on the chip was washed as described in the instructions attached to the kit, and the chip was regenerated and reused.
(§2) At this time, for the antibody-half molecules to be captured, PF1H (SEQ ID NO: 22), which is the H chain variable region portion of the anti-human IL6 receptor antibody described in WO 2009/041621, was used as the H chain variable region portion, PF1L (SEQ ID NO: 23), which is the L chain variable region portion of the anti-human IL6 receptor antibody described in WO 2009/041621, was used as the L chain variable region portion, and k0 was used as the L chain constant region portion. In addition, for the antibody-half molecules used as analytes, IC17H (SEQ ID NO: 24), which is the anti-KLH antibody described in WO 2015/174439, was used as the H chain variable region, IC17L (SEQ ID NO: 25), which is the anti-KLH antibody described in WO 2015/174439, was used as the L chain variable region, and k0 was used as the L chain constant region.

[4] = target: antibody-half molecule A3 with PF1H / PF1L-k0 (PF1H-DA405v2/PF1L-k0); assay: as above
Procedure: as §1, §2

[5] = target: the molecule itself; assay: size exclusion chromatography (G3000SWXL), absorbance 280 nm; self-association of the half molecule [panel b]
Procedure: The protein concentration of the antibody-half molecules was 0.25 mg/mL, and 80 μL was injected.
Evaluation of the molecular weight of the prepared antibody-half molecules A and B was carried out by size exclusion chromatography.

| Binder | binding result [2] | also measured |
| --- | --- | --- |
| B1 | – | Kd [1]: 6.1 nM |
| B2 | no binding | – |
| B3 | no binding | – |
| B4 | – | Kd [1]: 0.95 nM |
| B5 | no binding | – |
| B6 | no binding | – |
| B7 | no binding | – |
| B8 | – | Kd [1]: 1.2 nM |
| B9 | – | Kd [1]: 10 nM |
| B10 | no binding | – |
| B11 | no binding | – |
| B12 | no binding | – |
| B13 | no binding | – |
| B14 | – | Kd [1]: 53 nM |
| B15 | no binding | – |
| B16 | – | molar binding ratio [3]: 0.63 |
| B17 | – | molar binding ratio [4]: 0.54 |
| B18 | – | binding result [5]: no binding (tested: 0.25 mg/mL injected) |
